Source: the supplement of paper PMC10567573

B1: C10orf62 (parent)
chain: RALEEVEMKLQKNFLTQRENTIAG

Variants of: B1
Experiment: protein stability index of a GFP-peptide fusion (GPS, HEK-293T) (PSI 1-6); higher = more stable
Details: c terminus: a fixed tail appended
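Also: lentivirally expressed fusions sorted by FACS into six bins by GFP to DsRed ratio, PSI derived from sequencing read proportions per bin multiplied by bin number.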

For RALEEVEMKLWKNFLTQRENTIAG [Q11W], which protein stability index is on record?
The protein stability index was 1.98.

For RALEEVEMKLVKNFLTQRENTIAG [Q11V], which protein stability index is on record?
Its protein stability index is 2.82.

For RALEEVEMKLRKNFLTQRENTIAG [Q11R], which protein stability index is on record?
Its protein stability index is 3.71.

Which protein stability index does the source give for RALEEVEMKLEKNFLTQRENTIAG [Q11E] here?
The protein stability index was 4.28.

With RALEEVEMKLGKNFLTQRENTIAG [Q11G] as the variant, how does the protein stability index read?
Its protein stability index is 3.63.

With RALEEVEMKLKKNFLTQRENTIAG [Q11K] as the variant, how does the protein stability index read?
The protein stability index was 3.31.

With RALEEVEMKLMKNFLTQRENTIAG [Q11M] as the variant, how does the protein stability index read?
The protein stability index was 2.64.

For RALEEVEMKLHKNFLTQRENTIAG [Q11H], which protein stability index is on record?
Its protein stability index is 2.94.

For RALEEVEMKLCKNFLTQRENTIAG [Q11C], which protein stability index is on record?
Its protein stability index is 3.52.

Which protein stability index does the source give for RALEEVEMKLPKNFLTQRENTIAG [Q11P] here?
Its protein stability index is 3.9.

With RALEEVEMKLDKNFLTQRENTIAG [Q11D] as the variant, how does the protein stability index read?
Its protein stability index is 4.43.

With RALEEVEMKLTKNFLTQRENTIAG [Q11T] as the variant, how does the protein stability index read?
The protein stability index was 3.73.

Which protein stability index does the source give for RALEEVEMKLAKNFLTQRENTIAG [Q11A] here?
The protein stability index was 3.31.

With RALEEVEMKLSKNFLTQRENTIAG [Q11S] as the variant, how does the protein stability index read?
Its protein stability index is 3.48.

Which protein stability index does the source give for RALEEVELKLQKNFLTQRENTIAG [M8L] here?
Its protein stability index is 3.3.

Which protein stability index does the source give for RALEEVEIKLQKNFLTQRENTIAG [M8I] here?
Its protein stability index is 3.26.

Which protein stability index does the source give for RALEEVENKLQKNFLTQRENTIAG [M8N] here?
The protein stability index was 3.75.

With RALEEVEDKLQKNFLTQRENTIAG [M8D] as the variant, how does the protein stability index read?
Its protein stability index is 4.6.

For RALEEVESKLQKNFLTQRENTIAG [M8S], which protein stability index is on record?
Its protein stability index is 4.08.

With RALEEVERKLQKNFLTQRENTIAG [M8R] as the variant, how does the protein stability index read?
The protein stability index was 3.38.

With RALEEVEGKLQKNFLTQRENTIAG [M8G] as the variant, how does the protein stability index read?
Its protein stability index is 4.64.

Which protein stability index does the source give for RALEEVEFKLQKNFLTQRENTIAG [M8F] here?
Its protein stability index is 3.65.

Which protein stability index does the source give for RALEEVEQKLQKNFLTQRENTIAG [M8Q] here?
The protein stability index was 4.12.

For RALEEVEVKLQKNFLTQRENTIAG [M8V], which protein stability index is on record?
Its protein stability index is 3.35.

With RALEEVEAKLQKNFLTQRENTIAG [M8A] as the variant, how does the protein stability index read?
Its protein stability index is 4.09.

For RALEEVEYKLQKNFLTQRENTIAG [M8Y], which protein stability index is on record?
The protein stability index was 3.6.

For RALEEVEEKLQKNFLTQRENTIAG [M8E], which protein stability index is on record?
The protein stability index was 4.92.

With RALEEVEKKLQKNFLTQRENTIAG [M8K] as the variant, how does the protein stability index read?
Its protein stability index is 2.63.

With RALEEVECKLQKNFLTQRENTIAG [M8C] as the variant, how does the protein stability index read?
The protein stability index was 3.58.

With RALEEVEHKLQKNFLTQRENTIAG [M8H] as the variant, how does the protein stability index read?
Its protein stability index is 4.23.

For RALEEVETKLQKNFLTQRENTIAG [M8T], which protein stability index is on record?
The protein stability index was 4.23.

For RALEEVEPKLQKNFLTQRENTIAG [M8P], which protein stability index is on record?
The protein stability index was 3.94.

For RALEEVEWKLQKNFLTQRENTIAG [M8W], which protein stability index is on record?
Its protein stability index is 2.81.

Which protein stability index does the source give for RALEEVEMKLQKNFLEQRENTIAG [T16E] here?
Its protein stability index is 3.91.

Which protein stability index does the source give for RALEEVEMKLQKNFLCQRENTIAG [T16C] here?
The protein stability index was 3.24.

With RALEEVEMKLQKNFLHQRENTIAG [T16H] as the variant, how does the protein stability index read?
The protein stability index was 3.44.

Which protein stability index does the source give for RALEEVEMKLQKNFLDQRENTIAG [T16D] here?
The protein stability index was 4.09.

Which protein stability index does the source give for RALEEVEMKLQKNFLGQRENTIAG [T16G] here?
Its protein stability index is 4.06.

For RALEEVEMKLQKNFLFQRENTIAG [T16F], which protein stability index is on record?
Its protein stability index is 3.26.

With RALEEVEMKLQKNFLAQRENTIAG [T16A] as the variant, how does the protein stability index read?
The protein stability index was 2.98.

With RALEEVEMKLQKNFNTQRENTIAG [L15N] as the variant, how does the protein stability index read?
The protein stability index was 3.99.

Which protein stability index does the source give for RALEEVEMKLQKNFDTQRENTIAG [L15D] here?
Its protein stability index is 4.69.

For RALEEVEMKLQKNFSTQRENTIAG [L15S], which protein stability index is on record?
Its protein stability index is 4.38.

With RALEEVEMKLQKNFHTQRENTIAG [L15H] as the variant, how does the protein stability index read?
The protein stability index was 3.85.

With RALEEVEMKLQKNFKTQRENTIAG [L15K] as the variant, how does the protein stability index read?
Its protein stability index is 4.21.

With RALEEVEMKLQKNFVTQRENTIAG [L15V] as the variant, how does the protein stability index read?
Its protein stability index is 3.77.

With RALEEVEMKLQKNFCTQRENTIAG [L15C] as the variant, how does the protein stability index read?
Its protein stability index is 3.44.

With RALEEVEMKLQKNFRTQRENTIAG [L15R] as the variant, how does the protein stability index read?
Its protein stability index is 3.94.

For RALEEVEMKLQKNFTTQRENTIAG [L15T], which protein stability index is on record?
The protein stability index was 3.66.

With RALEEVEMKLQKNFQTQRENTIAG [L15Q] as the variant, how does the protein stability index read?
The protein stability index was 4.84.

Which protein stability index does the source give for RALEEVEMKLQKNFETQRENTIAG [L15E] here?
Its protein stability index is 4.3.

With RALEEVEMKLQKNFYTQRENTIAG [L15Y] as the variant, how does the protein stability index read?
The protein stability index was 3.71.

Which protein stability index does the source give for RALEEVEMKLQKNFITQRENTIAG [L15I] here?
The protein stability index was 3.71.

For RALEEVEMKLQKNFGTQRENTIAG [L15G], which protein stability index is on record?
The protein stability index was 3.9.

Which protein stability index does the source give for RALEEVEMKLQKNFWTQRENTIAG [L15W] here?
Its protein stability index is 2.63.

Which protein stability index does the source give for RALEEVEMKLQKNFPTQRENTIAG [L15P] here?
Its protein stability index is 3.89.

For RALEEVEMKLQKNFATQRENTIAG [L15A], which protein stability index is on record?
The protein stability index was 3.92.

For RALEEVEMKLQKNFMTQRENTIAG [L15M], which protein stability index is on record?
Its protein stability index is 3.62.

Which protein stability index does the source give for RALEEVHMKLQKNFLTQRENTIAG [E7H] here?
The protein stability index was 2.17.

For RALEEVMMKLQKNFLTQRENTIAG [E7M], which protein stability index is on record?
The protein stability index was 1.33.

With RALEEVQMKLQKNFLTQRENTIAG [E7Q] as the variant, how does the protein stability index read?
The protein stability index was 3.35.

With RALEEVSMKLQKNFLTQRENTIAG [E7S] as the variant, how does the protein stability index read?
The protein stability index was 2.97.

Which protein stability index does the source give for RALEEVPMKLQKNFLTQRENTIAG [E7P] here?
The protein stability index was 3.98.

With RALEEVYMKLQKNFLTQRENTIAG [E7Y] as the variant, how does the protein stability index read?
The protein stability index was 2.38.

With RALEEVRMKLQKNFLTQRENTIAG [E7R] as the variant, how does the protein stability index read?
Its protein stability index is 2.29.

For RALEEVCMKLQKNFLTQRENTIAG [E7C], which protein stability index is on record?
Its protein stability index is 1.8.

For RALEEVTMKLQKNFLTQRENTIAG [E7T], which protein stability index is on record?
The protein stability index was 2.6.

For RALEEVDMKLQKNFLTQRENTIAG [E7D], which protein stability index is on record?
Its protein stability index is 3.69.

For RALEEVFMKLQKNFLTQRENTIAG [E7F], which protein stability index is on record?
The protein stability index was 2.17.

With RALEEVAMKLQKNFLTQRENTIAG [E7A] as the variant, how does the protein stability index read?
The protein stability index was 2.02.

Which protein stability index does the source give for RALEEVNMKLQKNFLTQRENTIAG [E7N] here?
Its protein stability index is 3.61.

With RALEEVGMKLQKNFLTQRENTIAG [E7G] as the variant, how does the protein stability index read?
Its protein stability index is 2.84.

With RALEEVIMKLQKNFLTQRENTIAG [E7I] as the variant, how does the protein stability index read?
The protein stability index was 3.36.

With RALEEVVMKLQKNFLTQRENTIAG [E7V] as the variant, how does the protein stability index read?
Its protein stability index is 1.27.

Which protein stability index does the source give for RALEEVKMKLQKNFLTQRENTIAG [E7K] here?
The protein stability index was 1.96.

With RALEEVEMCLQKNFLTQRENTIAG [K9C] as the variant, how does the protein stability index read?
The protein stability index was 2.41.

For RALEEVEMDLQKNFLTQRENTIAG [K9D], which protein stability index is on record?
The protein stability index was 4.13.

Which protein stability index does the source give for RALEEVEMILQKNFLTQRENTIAG [K9I] here?
Its protein stability index is 2.08.

For RALEEVEMQLQKNFLTQRENTIAG [K9Q], which protein stability index is on record?
The protein stability index was 3.13.

With RALEEVEMWLQKNFLTQRENTIAG [K9W] as the variant, how does the protein stability index read?
Its protein stability index is 1.4.

For RALEEVEMMLQKNFLTQRENTIAG [K9M], which protein stability index is on record?
The protein stability index was 2.79.

For RALEEVEMELQKNFLTQRENTIAG [K9E], which protein stability index is on record?
Its protein stability index is 3.9.

With RALEEVEMNLQKNFLTQRENTIAG [K9N] as the variant, how does the protein stability index read?
The protein stability index was 2.98.

With RALEEVEMSLQKNFLTQRENTIAG [K9S] as the variant, how does the protein stability index read?
The protein stability index was 3.06.

Which protein stability index does the source give for RALEEVEMALQKNFLTQRENTIAG [K9A] here?
Its protein stability index is 3.09.

For RALEEVEMVLQKNFLTQRENTIAG [K9V], which protein stability index is on record?
Its protein stability index is 2.55.

For RALEEVEMYLQKNFLTQRENTIAG [K9Y], which protein stability index is on record?
Its protein stability index is 1.67.

For RALEEVEMHLQKNFLTQRENTIAG [K9H], which protein stability index is on record?
The protein stability index was 2.93.

With RALEEVEMRLQKNFLTQRENTIAG [K9R] as the variant, how does the protein stability index read?
Its protein stability index is 2.31.

Which protein stability index does the source give for RALEEVEMTLQKNFLTQRENTIAG [K9T] here?
Its protein stability index is 3.4.

For RALEEVEMPLQKNFLTQRENTIAG [K9P], which protein stability index is on record?
Its protein stability index is 3.51.

Which protein stability index does the source give for RALEEVEMGLQKNFLTQRENTIAG [K9G] here?
The protein stability index was 3.75.

For RALEEVEMFLQKNFLTQRENTIAG [K9F], which protein stability index is on record?
Its protein stability index is 2.24.

Which protein stability index does the source give for RALEEVEMLLQKNFLTQRENTIAG [K9L] here?
The protein stability index was 1.73.
